Source: publication PMC7136618, “Defective nucleotide-dependent assembly and membrane fusion in Mfn2 CMT2A variants improved by Bax” (Life Science Alliance, 2020)

Experiments:
[1] = target: Mfn2^WT with a C-terminal 3×FLAG tag (UniProt Q80U63); experiment: native gel or EMSA; BN-PAGE of untreated isolated mitochondria, lysed in 1% digitonin; 4–16% Bis-Tris native gel at 4°C; anti-FLAG blot
[2] = target: the molecule itself; experiment: as above

Mfn2^WT with a C-terminal 3×FLAG tag (from UniProt Q80U63 1-757) (natural protein)
stoichiometry N [1]: 2

B1: Mfn2^S378P with a C-terminal 3×FLAG tag (natural protein, UniProt Q80U63 1-757, looked up)
chain: MSLLFSRCNSIVTVKKDKRHMAEVNASPLKHFVTAKKKINGIFEQLGAYIQESASFLEDTHRNTELDPVTTEEQVLDVKGYLSKVRGISEVLARRHMKVAFFGRTSNGKSTVINAMLWDKVLPSGIGHTTNCFLRVGGTDGHEAFLLTEGSEEKKSVKTVNQLAHALHQDEQLHAGSMVSVMWPNSKCPLLKDDLVLMDSPGIDVTTELDSWIDKFCLDADVFVLVANSESTLMQTEKQFFHKVSERLSRPNIFILNNRWDASASEPEYMEEVRRQHMERCTSFLVDELGVVDRAQAGDRIFFVSAKEVLSARVQKAQGMPEGGGALAEGFQVRMFEFQNFERQFEECISQSAVKTKFEQHTVRAKQIAEAVRLIMDPLHIAAQEQRVYCLEMREERQDRLRFIDKQLELLAQDYKLRIKQITEEVERQVSTAMAEEIRRLSVLVDEYQMDFHPSPVVLKVYKNELHRHIEEGLGRNLSDRCSTAIASSLQTMQQDMIDGLKPLLPVSMRNQIDMLVPRQCFSLSYDLNCDKLCADFQEDIEFHFSLGWTMLVNRFLGPKNSRRALLGYSDQVQRPLPLTPANPSMPPLPQSSLTQEELMVSMVTGLASLTSRTSMGILVVGGVVWKAVGWRLIALSFGLYGLLYVYERLTWTTKAKERAFKRQFVEYASEKLQLIISYTGSNCSHQVQQELSGTFAHLCQQVDITRDNLEQEIAAMNKKVEALDSLQSRAKLLRNKAGWLDSELNMFTHQYLQPSR
notes: Mitofusin 2 (Mfn2) with the CMT2A-associated substitution S378P; CMT2A-associated (patient) substitution; also called Mfn2-FLAG variant S378P; source: Mfn2-null MEFs, retroviral transduction, clonal population; isolated mitochondria, lysed; not shown: 3×FLAG, C-terminal, kept
stoichiometry N [2]: 2

B2: Mfn2^C390F with a C-terminal 3×FLAG tag (natural protein, UniProt Q80U63 1-757, looked up)
chain: MSLLFSRCNSIVTVKKDKRHMAEVNASPLKHFVTAKKKINGIFEQLGAYIQESASFLEDTHRNTELDPVTTEEQVLDVKGYLSKVRGISEVLARRHMKVAFFGRTSNGKSTVINAMLWDKVLPSGIGHTTNCFLRVGGTDGHEAFLLTEGSEEKKSVKTVNQLAHALHQDEQLHAGSMVSVMWPNSKCPLLKDDLVLMDSPGIDVTTELDSWIDKFCLDADVFVLVANSESTLMQTEKQFFHKVSERLSRPNIFILNNRWDASASEPEYMEEVRRQHMERCTSFLVDELGVVDRAQAGDRIFFVSAKEVLSARVQKAQGMPEGGGALAEGFQVRMFEFQNFERQFEECISQSAVKTKFEQHTVRAKQIAEAVRLIMDSLHIAAQEQRVYFLEMREERQDRLRFIDKQLELLAQDYKLRIKQITEEVERQVSTAMAEEIRRLSVLVDEYQMDFHPSPVVLKVYKNELHRHIEEGLGRNLSDRCSTAIASSLQTMQQDMIDGLKPLLPVSMRNQIDMLVPRQCFSLSYDLNCDKLCADFQEDIEFHFSLGWTMLVNRFLGPKNSRRALLGYSDQVQRPLPLTPANPSMPPLPQSSLTQEELMVSMVTGLASLTSRTSMGILVVGGVVWKAVGWRLIALSFGLYGLLYVYERLTWTTKAKERAFKRQFVEYASEKLQLIISYTGSNCSHQVQQELSGTFAHLCQQVDITRDNLEQEIAAMNKKVEALDSLQSRAKLLRNKAGWLDSELNMFTHQYLQPSR
notes: Mitofusin 2 (Mfn2) with the CMT2A-associated substitution C390F; CMT2A-associated (patient) substitution; also called Mfn2-FLAG variant C390F; source: Mfn2-null MEFs, retroviral transduction, clonal population; isolated mitochondria, lysed; not shown: 3×FLAG, C-terminal, kept
stoichiometry N [2]: 2

B3: Mfn2^Q386P with a C-terminal 3×FLAG tag (natural protein, UniProt Q80U63 1-757, looked up)
chain: MSLLFSRCNSIVTVKKDKRHMAEVNASPLKHFVTAKKKINGIFEQLGAYIQESASFLEDTHRNTELDPVTTEEQVLDVKGYLSKVRGISEVLARRHMKVAFFGRTSNGKSTVINAMLWDKVLPSGIGHTTNCFLRVGGTDGHEAFLLTEGSEEKKSVKTVNQLAHALHQDEQLHAGSMVSVMWPNSKCPLLKDDLVLMDSPGIDVTTELDSWIDKFCLDADVFVLVANSESTLMQTEKQFFHKVSERLSRPNIFILNNRWDASASEPEYMEEVRRQHMERCTSFLVDELGVVDRAQAGDRIFFVSAKEVLSARVQKAQGMPEGGGALAEGFQVRMFEFQNFERQFEECISQSAVKTKFEQHTVRAKQIAEAVRLIMDSLHIAAQEPRVYCLEMREERQDRLRFIDKQLELLAQDYKLRIKQITEEVERQVSTAMAEEIRRLSVLVDEYQMDFHPSPVVLKVYKNELHRHIEEGLGRNLSDRCSTAIASSLQTMQQDMIDGLKPLLPVSMRNQIDMLVPRQCFSLSYDLNCDKLCADFQEDIEFHFSLGWTMLVNRFLGPKNSRRALLGYSDQVQRPLPLTPANPSMPPLPQSSLTQEELMVSMVTGLASLTSRTSMGILVVGGVVWKAVGWRLIALSFGLYGLLYVYERLTWTTKAKERAFKRQFVEYASEKLQLIISYTGSNCSHQVQQELSGTFAHLCQQVDITRDNLEQEIAAMNKKVEALDSLQSRAKLLRNKAGWLDSELNMFTHQYLQPSR
notes: Mitofusin 2 (Mfn2) with the CMT2A-associated substitution Q386P; CMT2A-associated (patient) substitution; also called Mfn2-FLAG variant Q386P; source: Mfn2-null MEFs, retroviral transduction, clonal population; isolated mitochondria, lysed; not shown: 3×FLAG, C-terminal, kept
stoichiometry N [2]: 2

B4: Mfn2^A383V with a C-terminal 3×FLAG tag (natural protein, UniProt Q80U63 1-757, looked up)
chain: MSLLFSRCNSIVTVKKDKRHMAEVNASPLKHFVTAKKKINGIFEQLGAYIQESASFLEDTHRNTELDPVTTEEQVLDVKGYLSKVRGISEVLARRHMKVAFFGRTSNGKSTVINAMLWDKVLPSGIGHTTNCFLRVGGTDGHEAFLLTEGSEEKKSVKTVNQLAHALHQDEQLHAGSMVSVMWPNSKCPLLKDDLVLMDSPGIDVTTELDSWIDKFCLDADVFVLVANSESTLMQTEKQFFHKVSERLSRPNIFILNNRWDASASEPEYMEEVRRQHMERCTSFLVDELGVVDRAQAGDRIFFVSAKEVLSARVQKAQGMPEGGGALAEGFQVRMFEFQNFERQFEECISQSAVKTKFEQHTVRAKQIAEAVRLIMDSLHIAVQEQRVYCLEMREERQDRLRFIDKQLELLAQDYKLRIKQITEEVERQVSTAMAEEIRRLSVLVDEYQMDFHPSPVVLKVYKNELHRHIEEGLGRNLSDRCSTAIASSLQTMQQDMIDGLKPLLPVSMRNQIDMLVPRQCFSLSYDLNCDKLCADFQEDIEFHFSLGWTMLVNRFLGPKNSRRALLGYSDQVQRPLPLTPANPSMPPLPQSSLTQEELMVSMVTGLASLTSRTSMGILVVGGVVWKAVGWRLIALSFGLYGLLYVYERLTWTTKAKERAFKRQFVEYASEKLQLIISYTGSNCSHQVQQELSGTFAHLCQQVDITRDNLEQEIAAMNKKVEALDSLQSRAKLLRNKAGWLDSELNMFTHQYLQPSR
notes: Mitofusin 2 (Mfn2) with the CMT2A-associated substitution A383V; CMT2A-associated (patient) substitution; also called Mfn2-FLAG variant A383V; source: Mfn2-null MEFs, retroviral transduction, clonal population; isolated mitochondria, lysed; not shown: 3×FLAG, C-terminal, kept
stoichiometry N [2]: 2
